Where a chain is given by its changes, count along the chain named.
T1: mArtemin-MMH (mouse)
T1 construct: also called msArtemin-MMH; msARTN.mmh
T1 chain: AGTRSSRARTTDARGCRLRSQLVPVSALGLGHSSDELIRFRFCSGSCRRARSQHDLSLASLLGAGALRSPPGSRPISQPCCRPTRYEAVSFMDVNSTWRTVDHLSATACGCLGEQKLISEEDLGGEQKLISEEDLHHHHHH

T2: MfArtemin-MMH (cynomolgous monkey (Macaca fascicularis))
T2 construct: also called mfARTN.mmh; mfARTN (A108-G22).mmh
T2 chain: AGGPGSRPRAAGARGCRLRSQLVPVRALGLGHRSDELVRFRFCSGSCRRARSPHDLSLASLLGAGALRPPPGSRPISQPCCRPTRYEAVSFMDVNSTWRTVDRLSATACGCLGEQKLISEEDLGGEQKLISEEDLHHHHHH

T3: hArtemin-MMH (human)
T3 construct: also called hARTN.mmh; hARTN (A108-G220).mmh
T3 chain: T2 chain with P8A, I76V

B1: H4H33331P (antibody, human IgG4 S228P, kappa, V domains shown)
VH: EVQLVESGGDLVQPGGSLKLSCAASGFTFSGSAMHWVRQASGKGLEWVGRIRNKVHRYATEYGASVKGRFTISRDDSKNTAYLQMNSLKIEDTAVYYCVVVVPGSIEAFDIWGQGTMVTVSS
VL: DIQMTQSPSSLSASVGDRVTITCRASQSISTYLNWYQQKPGKAPNLLIYAASTLESGVPSRFSGSGSGTDFTLTISSLQPEDFEIYYCQQSYNIPWTFGQGTKVEIKR
notes: Fully human antibody (human variable and constant domains) from a VELOCIMMUNE mouse; also called Artemin mAb; anti-ARTN antibody
B2: H4H33349P (antibody, human IgG4 S228P, kappa, V domains shown)
VH: QVQLVESGGGVVQPGRSLRLSCEASGFTFSDYDLHWVRQAPGKGLEWVAFISNDGSNEYYPKSVKGRFSISRDNSKNTLYLQMNSLRAEDTAVYHCTKERDYYYDSSGSLDYWGQGTLVTVSS
VL: DIQMTQSPSSLSASVGDRVTITCRASQTINNYLNWYQQKPGKAPKLLIYTTSGLQSGVPSRFSGRGSGTDFTLAISSLQPEDFATYYCQQSYHSPFTFGPGTKVDIKR
notes: Fully human antibody; also called Artemin mAb; anti-ARTN antibody
B3: H4H33336P (antibody, human IgG4 S228P, kappa, V domains shown)
VH: QVQLVESGGGVVQPGRSLRLSCVASGFILSHYGMHWVRQAPGKGLEWVAVIWFDGTNKYYADSVKGRFTVSRDNSKNTLYMQMNSLRAEDTAVYYCARDPPPARRGNYNGMDVWGQGTTVTVSS
VL: DIQMTQSPSSLSASVGDRVTITCRASQDIRNDLGWYQQKPGKAPKRLIFGASSLQSGVPLRFSGSGSGTEFTLTINNLQPEDFATFYCLQDNSYPWTFGQGTKVEIKR
notes: as for B2

Columns and labels:
mArtemin-MMH [1] = target: T1, mArtemin-MMH; assay: SPR Biacore T200, mArtemin-MMH captured by anti-myc mAb, mAb injected, 25 C
Experimental: (§1) The equilibrium dissociation constant (KD) for Artemin binding to each of Artemin monoclonal antibodies (mAbs) H4H33331P, H4H33335P, H4H33336P, and H4H33349P was determined using a real-time surface plasmon resonance Biacore T200 biosensor. All binding studies were performed in 10 mM HEPES, 150 mM NaCl, 3 mM EDTA, and 0.05% v/v Surfactant Tween-20, pH 7.4 (HBS-ET) running buffer at 25° C. The Biacore CM4 sensor chip surface was first derivatized by amine coupling with anti-myc mAb to capture hArtemin-MMH, MfArtemin-MMH, or mArtemin-MMH. Different concentrations of Artemin mAbs (60-2.2 nM, 3-fold serial dilution) prepared in […] running buffer were injected over the Artemin-captured surfaces for 3 min at a flow rate of 50 μL/min and their dissociation in HBS-ET running buffer was monitored for 5 minutes. At the end of each cycle, the Artemin-captured surfaces were regenerated using a 6 sec injection of 20 mM phosphoric acid.
(§2) The association rate (kₐ) and dissociation rate (kd) were determined by fitting the real-time binding sensorgrams to a 1:1 binding model with mass transport limitation using Scrubber 2.0c curve-fitting software. Binding dissociation equilibrium constant (KD) and dissociative half-life (t½) were calculated from the kinetic rates as: KD (M)=kd/kₐ, and t_{1/2} (min)=[In2/(60*kd)].

MfArtemin-MMH [2] = target: T2, MfArtemin-MMH; assay: SPR Biacore T200, MfArtemin-MMH captured by anti-myc mAb, mAb injected, 25 C
Experimental: as §1, §2

hArtemin-MMH [3] = target: T3, hArtemin-MMH; assay: BLI (Octet HTX), mAb captured on AHC tips, artemin at 30 nM, 25 C
Experimental: (§3) The entire experiment was performed at 25° C. in 10 mM HEPES, 150 mM NaCl, 3 mM EDTA, 0.02% NaN3 and 0.05% v/v Surfactant Tween-20, 1 mg/mL BSA, pH7.4 (HBS-EBT) buffer with the plate shaking at a speed of 1000 rpm. Different Artemin mAbs were first captured onto anti-human antibody (AHC) coated Octet biosensor tips (Fortebio Inc, #18-5064) by submerging the biosensor tips for 40 seconds in wells containing 2 μg/mL of Artemin mAb. […] All the Artemin and Artemin mAb samples were prepared in HBS-EBT buffer. The real-time binding response was monitored during the entire course of the experiment and the binding response at the end of every step was recorded.

hArtemin-MMH [4] = target: T3, hArtemin-MMH; assay: BLI (Octet HTX), mAb captured on AHC tips, artemin at 15 nM, 25 C
Experimental: as §3

mArtemin-MMH [5] = target: T1, mArtemin-MMH; assay: as above
Experimental: as §3

MfArtemin-MMH [6] = target: T2, MfArtemin-MMH; assay: as above
Experimental: as §3

hArtemin-MMH [7] = target: T3, hArtemin-MMH; assay: blocking ELISA, antibody blocks 75 pM hARTN.mmh binding to plate-coated hGFRa3.hFc
Experimental: Experiments were carried out using the following procedures. Plates were coated with hGFRa3.hFc at 2 μg/ml in PBS on a 96-well microtiter plate at 4° C. overnight for all three assays. […] In other microtiter plates, a constant amount of either 75 pM hARTN.mmh, 400 pM mfARTN.mmh, or 150 pM msARTN.mmh were separately bound with anti-ARTN antibodies and an irrelevant IgG4 antibody control at a serial dilution series from 0.0017 nM to 100 nM in PBS+0.5% BSA. After a one-hour incubation, the mixture solutions were transferred to microtiter plates coated with hGFRa3.hFc. After one hour of incubation at RT, the wells were washed with PBST, and plate-bound ARTN was detected with an anti-penta-His antibody conjugated with horseradish peroxidase (HRP) (Qiagen). The plates were then developed using TMB substrate solution (BD Biosciences, #555214) according to manufacturer's recommendation and absorbance at 450 nm was measured on a Victor X5 plate reader.
Binding data were analyzed using a sigmoidal dose-response model within Prism™ software (GraphPad). […] If the calculated IC50 value was below the LLOA, less than LLOA was reported. Percent blocking at 100 nM antibody was calculated based on the background-corrected binding signal observed at the highest antibody concentration tested using the formula listed below and reported for all tested antibodies: […]

hArtemin-MMH [8] = target: T3, hArtemin-MMH; assay: BLI (Octet HTX), mAb captured on AHC tips, artemin at 7.5 nM, 25 C
Experimental: as §3

mArtemin-MMH [9] = target: T1, mArtemin-MMH; assay: as above
Experimental: as §3

MfArtemin-MMH [10] = target: T2, MfArtemin-MMH; assay: as above
Experimental: as §3

hArtemin-MMH [11] = target: T3, hArtemin-MMH; assay: SPR Biacore T200, hArtemin-MMH captured by anti-myc mAb, mAb injected, 25 C
Experimental: as §1, §2

Binder | 60 nM Artemin mAb Bound (RU) (mArtemin-MMH [1]) | 60 nM Artemin mAb Bound (RU) (MfArtemin-MMH [2]) | Kd (MfArtemin-MMH [2]) [nM] | koff (MfArtemin-MMH [2]) [s⁻¹] | kon (MfArtemin-MMH [2]) [M⁻¹ s⁻¹] | t½ (MfArtemin-MMH [2]) [h] | Artemin Binding Response (nm) (hArtemin-MMH [3]) | Artemin Binding Response (nm) (hArtemin-MMH [4]) | Artemin Binding Response (nm) (mArtemin-MMH [5]) | Artemin Binding Response (nm) (MfArtemin-MMH [6]) | % Blocking with 100 nM Ab (hArtemin-MMH [7]) [%] | IC50 (hArtemin-MMH [7]) [nM] | Artemin Binding Response (nm) (hArtemin-MMH [8]) | Artemin Binding Response (nm) (mArtemin-MMH [9]) | Artemin Binding Response (nm) (MfArtemin-MMH [10]) | 60 nM Artemin mAb Bound (RU) (hArtemin-MMH [11]) | Kd (hArtemin-MMH [11]) [nM] | koff (hArtemin-MMH [11]) [s⁻¹] | kon (hArtemin-MMH [11]) [M⁻¹ s⁻¹] | t½ (hArtemin-MMH [11]) [h] | other results
B1 | 7 | 5 | 1.51 | 0.000199 | 131000 | 0.967 | 0.11 | 0.11 | 0.08 | 0.03 | 88 | 0.38 | 0.07 | 0.07 | 0.01 | 7 | 2.91 | 0.000366 | 126000 | 0.533 | Kd (mArtemin-MMH [1]): 0.346 nM; koff (mArtemin-MMH [1]): 5.4e-05 s⁻¹; kon (mArtemin-MMH [1]): 156000 M⁻¹ s⁻¹; t½ (mArtemin-MMH [1]): 3.57 h
B2 | 20 | 14 | 0.21 | 9.6e-05 | 457000 | 2 | 0.11 | 0.11 | 0.11 | 0.09 | 95 | 0.128 | 0.11 | 0.11 | 0.04 | 18 | 0.119 | 5.9e-05 | 497000 | 3.27 | Kd (mArtemin-MMH [1]): 0.113 nM; koff (mArtemin-MMH [1]): 5.91e-05 s⁻¹; kon (mArtemin-MMH [1]): 521000 M⁻¹ s⁻¹; t½ (mArtemin-MMH [1]): 3.25 h
B3 | 3 | 11 | 0.111 | 2.3e-05 | 207000 | 8.37 | 0.12 | 0.09 | 0.01 | 0.03 | 93 | 0.161 | 0.05 | 0 | 0.01 | 15 | 0.15 | 3.75e-05 | 249000 | 5.13 | 
